Laboratory results published in patent US20170081400A1 (CEPHALON, published 2017).

T1: human TL1A extracellular domain with N-terminal HIS and FLAG tag (human, UniProt O95150 72-251)
T1 construct: the whole entry is named; also called TNFSF15
T1 sequence: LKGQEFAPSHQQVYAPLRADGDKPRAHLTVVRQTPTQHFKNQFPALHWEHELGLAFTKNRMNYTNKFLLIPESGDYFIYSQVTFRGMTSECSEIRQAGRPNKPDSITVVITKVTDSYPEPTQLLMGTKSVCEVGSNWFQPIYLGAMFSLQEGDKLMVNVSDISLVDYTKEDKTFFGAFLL

B1: 320-524 (antibody, human IgG1, name in Kabat numbering, V domains shown)
VH: QVQLVQSGAEVKKPGASVKVSCKASGYTFTSYDINWVRQAPGQGLEWMGWLNPNQGNTGYAQKFQGRVTMTADRSTSTAYMELSSLRSEDTAVYYCAREVPETAAFEYWGQGTLVTVSS
VL: QSVLTQPPSVSGAPGQRVTISCTSSSSDIGAGLGVHWYQQLPGTAPKLLIEGYYNRPSGVPDRFSGSKSGTSASLTITGLLPEDEGDYYCQSYDGTLSALFGGGTKLTVLG
notes: full-length human IgG1, lambda
B2: 320-537 (antibody, human IgG1, name in Kabat numbering, V domains shown)
VH: QVQLVQSGAEVKKPGASVKVSCKASGYTFTSYDINWVRQAPGQGLEWMGWLNPNSLNTGYAQKFQGRVTMTADRSTSTAYMELSSLRSEDTAVYYCAREVPETAAFEYWGQGTLVTVSS
VL: QSVLTQPPSVSGAPGQRVTISCTSSSSDIGAGLGVHWYQQLPGTAPKLLIEGYYNRPSGVPDRFSGSKSGTSASLTITGLLPEDEGDYYCQSYDGTLSALFGGGTKLTVLG
notes: as for B1
B3: 320-533 (antibody, human IgG1, name in Kabat numbering, V domains shown)
VH: QVQLVQSGAEVKKPGASVKVSCKASGYTFTSYDINWVRQAPGQGLEWMGWLNPNSQNTGYAQKFQGRVTMTADRSTSTAYMELSSLRSEDTAVYYCAREVPETAAFEYWGQGTLVTVSS
VL: QSVLTQPPSVSGAPGQRVTISCTSSSSDIGAGLGVHWYQQLPGTAPKLLIEGYYNRPSGVPDRFSGSKSGTSASLTITGLLPEDEGDYYCQSYDGTLSALFGGGTKLTVLG
notes: as for B1
B4: 320-532 (antibody, human IgG1, name in Kabat numbering, V domains shown)
VH: QVQLVQSGAEVKKPGASVKVSCKASGYTFTSYDINWVRQAPGQGLEWMGWLNPNSSNTGYAQKFQGRVTMTADRSTSTAYMELSSLRSEDTAVYYCAREVPETAAFEYWGQGTLVTVSS
VL: QSVLTQPPSVSGAPGQRVTISCTSSSSDIGAGLGVHWYQQLPGTAPKLLIEGYYNRPSGVPDRFSGSKSGTSASLTITGLLPEDEGDYYCQSYDGTLSALFGGGTKLTVLG
notes: as for B1
B5: 320-525 (antibody, human IgG1, name in Kabat numbering, V domains shown)
VH: QVQLVQSGAEVKKPGASVKVSCKASGYTFTSYDINWVRQAPGQGLEWMGWLNPNDGNTGYAQKFQGRVTMTADRSTSTAYMELSSLRSEDTAVYYCAREVPETAAFEYWGQGTLVTVSS
VL: QSVLTQPPSVSGAPGQRVTISCTSSSSDIGAGLGVHWYQQLPGTAPKLLIEGYYNRPSGVPDRFSGSKSGTSASLTITGLLPEDEGDYYCQSYDGTLSALFGGGTKLTVLG
notes: as for B1
B6: 320-540 (antibody, human IgG1, name in Kabat numbering, V domains shown)
VH: QVQLVQSGAEVKKPGASVKVSCKASGYTFTSYDINWVRQAPGQGLEWMGWLNPNSGSTGYAQKFQGRVTMTADRSTSTAYMELSSLRSEDTAVYYCAREVPETAAFEYWGQGTLVTVSS
VL: QSVLTQPPSVSGAPGQRVTISCTSSSSDIGAGLGVHWYQQLPGTAPKLLIEGYYNRPSGVPDRFSGSKSGTSASLTITGLLPEDEGDYYCQSYDGTLSALFGGGTKLTVLG
notes: as for B1
B7: 320-528 (antibody, human IgG1, name in Kabat numbering, V domains shown)
VH: QVQLVQSGAEVKKPGASVKVSCKASGYTFTSYDINWVRQAPGQGLEWMGWLNPNLGNTGYAQKFQGRVTMTADRSTSTAYMELSSLRSEDTAVYYCAREVPETAAFEYWGQGTLVTVSS
VL: QSVLTQPPSVSGAPGQRVTISCTSSSSDIGAGLGVHWYQQLPGTAPKLLIEGYYNRPSGVPDRFSGSKSGTSASLTITGLLPEDEGDYYCQSYDGTLSALFGGGTKLTVLG
notes: as for B1
B8: 320-530 (antibody, human IgG1, name in Kabat numbering, V domains shown)
VH: QVQLVQSGAEVKKPGASVKVSCKASGYTFTSYDINWVRQAPGQGLEWMGWLNPNYGNTGYAQKFQGRVTMTADRSTSTAYMELSSLRSEDTAVYYCAREVPETAAFEYWGQGTLVTVSS
VL: QSVLTQPPSVSGAPGQRVTISCTSSSSDIGAGLGVHWYQQLPGTAPKLLIEGYYNRPSGVPDRFSGSKSGTSASLTITGLLPEDEGDYYCQSYDGTLSALFGGGTKLTVLG
notes: as for B1
B9: 320-534 (antibody, human IgG1, name in Kabat numbering, V domains shown)
VH: QVQLVQSGAEVKKPGASVKVSCKASGYTFTSYDINWVRQAPGQGLEWMGWLNPNSDNTGYAQKFQGRVTMTADRSTSTAYMELSSLRSEDTAVYYCAREVPETAAFEYWGQGTLVTVSS
VL: QSVLTQPPSVSGAPGQRVTISCTSSSSDIGAGLGVHWYQQLPGTAPKLLIEGYYNRPSGVPDRFSGSKSGTSASLTITGLLPEDEGDYYCQSYDGTLSALFGGGTKLTVLG
notes: as for B1
B10: 320-535 (antibody, human IgG1, name in Kabat numbering, V domains shown)
VH: QVQLVQSGAEVKKPGASVKVSCKASGYTFTSYDINWVRQAPGQGLEWMGWLNPNSHNTGYAQKFQGRVTMTADRSTSTAYMELSSLRSEDTAVYYCAREVPETAAFEYWGQGTLVTVSS
VL: QSVLTQPPSVSGAPGQRVTISCTSSSSDIGAGLGVHWYQQLPGTAPKLLIEGYYNRPSGVPDRFSGSKSGTSASLTITGLLPEDEGDYYCQSYDGTLSALFGGGTKLTVLG
notes: as for B1
B11: 320-536 (antibody, human IgG1, name in Kabat numbering, V domains shown)
VH: QVQLVQSGAEVKKPGASVKVSCKASGYTFTSYDINWVRQAPGQGLEWMGWLNPNSKNTGYAQKFQGRVTMTADRSTSTAYMELSSLRSEDTAVYYCAREVPETAAFEYWGQGTLVTVSS
VL: QSVLTQPPSVSGAPGQRVTISCTSSSSDIGAGLGVHWYQQLPGTAPKLLIEGYYNRPSGVPDRFSGSKSGTSASLTITGLLPEDEGDYYCQSYDGTLSALFGGGTKLTVLG
notes: as for B1
B12: 320-527 (antibody, human IgG1, name in Kabat numbering, V domains shown)
VH: QVQLVQSGAEVKKPGASVKVSCKASGYTFTSYDINWVRQAPGQGLEWMGWLNPNKGNTGYAQKFQGRVTMTADRSTSTAYMELSSLRSEDTAVYYCAREVPETAAFEYWGQGTLVTVSS
VL: QSVLTQPPSVSGAPGQRVTISCTSSSSDIGAGLGVHWYQQLPGTAPKLLIEGYYNRPSGVPDRFSGSKSGTSASLTITGLLPEDEGDYYCQSYDGTLSALFGGGTKLTVLG
notes: as for B1
B13: 320-539 (antibody, human IgG1, name in Kabat numbering, V domains shown)
VH: QVQLVQSGAEVKKPGASVKVSCKASGYTFTSYDINWVRQAPGQGLEWMGWLNPNSGATGYAQKFQGRVTMTADRSTSTAYMELSSLRSEDTAVYYCAREVPETAAFEYWGQGTLVTVSS
VL: QSVLTQPPSVSGAPGQRVTISCTSSSSDIGAGLGVHWYQQLPGTAPKLLIEGYYNRPSGVPDRFSGSKSGTSASLTITGLLPEDEGDYYCQSYDGTLSALFGGGTKLTVLG
notes: as for B1
B14: 320-526 (antibody, human IgG1, name in Kabat numbering, V domains shown)
VH: QVQLVQSGAEVKKPGASVKVSCKASGYTFTSYDINWVRQAPGQGLEWMGWLNPNHGNTGYAQKFQGRVTMTADRSTSTAYMELSSLRSEDTAVYYCAREVPETAAFEYWGQGTLVTVSS
VL: QSVLTQPPSVSGAPGQRVTISCTSSSSDIGAGLGVHWYQQLPGTAPKLLIEGYYNRPSGVPDRFSGSKSGTSASLTITGLLPEDEGDYYCQSYDGTLSALFGGGTKLTVLG
notes: as for B1
B15: 320-531 (antibody, human IgG1, name in Kabat numbering, V domains shown)
VH: QVQLVQSGAEVKKPGASVKVSCKASGYTFTSYDINWVRQAPGQGLEWMGWLNPNSANTGYAQKFQGRVTMTADRSTSTAYMELSSLRSEDTAVYYCAREVPETAAFEYWGQGTLVTVSS
VL: QSVLTQPPSVSGAPGQRVTISCTSSSSDIGAGLGVHWYQQLPGTAPKLLIEGYYNRPSGVPDRFSGSKSGTSASLTITGLLPEDEGDYYCQSYDGTLSALFGGGTKLTVLG
notes: as for B1
B16: 320-529 (antibody, human IgG1, name in Kabat numbering, V domains shown)
VH: QVQLVQSGAEVKKPGASVKVSCKASGYTFTSYDINWVRQAPGQGLEWMGWLNPNWGNTGYAQKFQGRVTMTADRSTSTAYMELSSLRSEDTAVYYCAREVPETAAFEYWGQGTLVTVSS
VL: QSVLTQPPSVSGAPGQRVTISCTSSSSDIGAGLGVHWYQQLPGTAPKLLIEGYYNRPSGVPDRFSGSKSGTSASLTITGLLPEDEGDYYCQSYDGTLSALFGGGTKLTVLG
notes: as for B1
B17: 320-538 (antibody, human IgG1, name in Kabat numbering, V domains shown)
VH: QVQLVQSGAEVKKPGASVKVSCKASGYTFTSYDINWVRQAPGQGLEWMGWLNPNSWNTGYAQKFQGRVTMTADRSTSTAYMELSSLRSEDTAVYYCAREVPETAAFEYWGQGTLVTVSS
VL: QSVLTQPPSVSGAPGQRVTISCTSSSSDIGAGLGVHWYQQLPGTAPKLLIEGYYNRPSGVPDRFSGSKSGTSASLTITGLLPEDEGDYYCQSYDGTLSALFGGGTKLTVLG
notes: as for B1

Columns and labels:
[1] = target: T1, human TL1A extracellular domain with …; assay: SPR Run 7, antibody on Protein A, TL1A 5 ug/mL, timepoint 220
Text: (§1) 1.5. Antibody expression and antigen binding as determined by SPR. Using a CM5 sensor chip (GE Healthcare) Protein A (Pierce) was coupled to the chip surface using an amine coupling kit (GE Healthcare). Protein A was coupled on flow cell 1 and 2 (or alternatively 3 and 4) using a BIACORE® T200. […] The amount of supernatant or purified protein (as well as the concentration) injected during the capture stage varied between runs and is specified in the header of the Tables 3-11. At the end of injection of the supernatant or purified antibody the change in response units was measured. This value was reported as Capture Level in Tables 3-11. […] The response units were measured prior to the end of the dissociation phase. […] The sensorgrams were double referenced (flow cell 2 is subtracted from flow cell 1 and a buffer blank). As there were a large number of antibody variants to screen, these were screened across different runs (Tables 3-11). […] A summary of the conditions used in each run is below:
(§2) 2.1. […] In some experiment the antibodies were purified using Protein A chromatography (See 1.4) and purified antibodies were used in BIACORE® (GE Healthcare) experiments.

[2] = target: T1, human TL1A extracellular domain with …; assay: SPR Run 7, antibody on Protein A, TL1A 5 ug/mL, timepoint 44
Text: as §1, §2

Binder | TL1A Binding Level (Late) [1] [RU] | TL1A Binding Level (Early) [2] [RU]
B1 | 49 | 55
B2 | 123 | 133
B3 | 86 | 93
B4 | 7 | 10
B5 | 17 | 33
B6 | 92 | 100
B7 | 108 | 121
B8 | 67 | 77
B9 | 102 | 109
B10 | 115 | 126
B11 | 105 | 115
B12 | 136 | 146
B13 | 159 | 172
B14 | 124 | 134
B15 | 61 | 66
B16 | 83 | 94
B17 | 49 | 54
